Changes are numbered by the printed parent chain. Names may count otherwise.

T1: EsCas13d, nuclease-dead (Eubacterium siraeum, UniProt B0MS50, R295A;H300A;R849A;H854A)
T1 sequence: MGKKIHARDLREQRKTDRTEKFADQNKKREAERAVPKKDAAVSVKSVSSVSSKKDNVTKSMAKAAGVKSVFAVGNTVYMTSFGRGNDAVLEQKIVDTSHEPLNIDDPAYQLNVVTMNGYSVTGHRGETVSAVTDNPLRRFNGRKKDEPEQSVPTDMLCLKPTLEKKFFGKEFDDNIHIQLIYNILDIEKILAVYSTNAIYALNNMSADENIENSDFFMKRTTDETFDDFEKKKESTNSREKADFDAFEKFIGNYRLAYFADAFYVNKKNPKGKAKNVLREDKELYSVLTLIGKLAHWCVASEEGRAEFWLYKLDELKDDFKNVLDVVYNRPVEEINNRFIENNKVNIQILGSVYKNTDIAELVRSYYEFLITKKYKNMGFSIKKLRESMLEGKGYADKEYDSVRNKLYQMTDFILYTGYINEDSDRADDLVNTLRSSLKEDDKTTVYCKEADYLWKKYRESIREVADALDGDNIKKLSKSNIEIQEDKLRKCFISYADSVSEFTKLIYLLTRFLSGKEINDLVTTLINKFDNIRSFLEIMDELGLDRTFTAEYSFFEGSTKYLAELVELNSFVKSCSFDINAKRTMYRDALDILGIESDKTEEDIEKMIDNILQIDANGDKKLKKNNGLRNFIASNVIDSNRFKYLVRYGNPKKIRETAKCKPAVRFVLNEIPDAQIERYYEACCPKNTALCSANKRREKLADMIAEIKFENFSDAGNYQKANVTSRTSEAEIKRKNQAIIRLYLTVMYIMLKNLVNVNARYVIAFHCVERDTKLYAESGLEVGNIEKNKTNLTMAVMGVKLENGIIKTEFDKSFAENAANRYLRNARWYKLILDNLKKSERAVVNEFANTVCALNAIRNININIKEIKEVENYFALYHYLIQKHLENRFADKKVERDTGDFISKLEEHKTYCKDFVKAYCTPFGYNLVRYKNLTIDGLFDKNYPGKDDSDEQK

B1: target 1 G13C,C22U (mixed)
RNA 1: CACCCGUGCAAAAAUGCAGGGGUCUAAAACUGAGCGGAUAACCUCUCUAUGG
RNA 2: GGGAAUGGAUCCACAUCUACGAAUUCGUAUCAUAGAGACGUUAUCCGCUCACCGAGAUCGGAAGAGCACACGU
B2: target 1 del5,del15 (mixed)
RNA 1: B1 RNA 1
RNA 2: GGGAAUGGAUCCACAUCUACGAAUUCGUACCAUAGAAGGUUAUCCCUCACCGAGAUCGGAAGAGCACACGU
B3: target 1 insA 3' of 8,insU 3' of 5 (mixed)
RNA 1: B1 RNA 1
RNA 2: GGGAAUGGAUCCACAUCUACGAAUUCGUACCAUAGAGAGGUUAUACCGUCUCACCGAGAUCGGAAGAGCACACGU
B4: target 1 insC 3' of 11,insG 3' of 8 (mixed)
RNA 1: B1 RNA 1
RNA 2: B3 RNA 2 with U42C, A43U, U44A, A45U, C46G, G48C, U49G
B5: target 1 insA 3' of 3,insC 3' of 1 (mixed)
RNA 1: B1 RNA 1
RNA 2: B3 RNA 2 with A45C, C47G, G48C, C50A, U51C, C52A, A53C
B6: target 1 U10G,U11C (mixed)
RNA 1: B1 RNA 1
RNA 2: B1 RNA 2 with U30C, C39G, U41C, U42G
B7: target 1 insU 3' of 17,insA 3' of 12 (mixed)
RNA 1: B1 RNA 1
RNA 2: GGGAAUGGAUCCACAUCUACGAAUUCGUACCAUAGUAGAGGAUUAUCCGCUCACCGAGAUCGGAAGAGCACACGU
B8: target 1 A1C,G5U (mixed)
RNA 1: B1 RNA 1
RNA 2: B1 RNA 2 with U30C, C39G, G47U, A51C
B9: target 1 G17U,U19A (mixed)
RNA 1: B1 RNA 1
RNA 2: B1 RNA 2 with U30C, U33A, G35U, C39G
B10: target 1 U11G,C22A (mixed)
RNA 1: B1 RNA 1
RNA 2: B1 RNA 2 with U30A, C39G, U41G
B11: target 1 insC 3' of 13,insG 3' of 2 (mixed)
RNA 1: B1 RNA 1
RNA 2: B3 RNA 2 with G40C, U41G, A43U, U44A, A45U, U49C, C50U, U51C, C52G
B12: target 1 C6A,A14C (mixed)
RNA 1: B1 RNA 1
RNA 2: B1 RNA 2 with U30C, A38C, C39G, C46A
B13: target 1 insA 3' of 3,insU 3' of 1 (mixed)
RNA 1: B1 RNA 1
RNA 2: B3 RNA 2 with A45C, C47G, G48C, C50A, U51C, C52A, A53U
B14: target 1 C7A,A16C (mixed)
RNA 1: B1 RNA 1
RNA 2: B1 RNA 2 with U30C, A36C, C39G, C45A
B15: target 1 insG 3' of 18,insA 3' of 13 (mixed)
RNA 1: B1 RNA 1
RNA 2: B7 RNA 2 with U36G, G41A, A42G
B16: target 1 A1U,G5U (mixed)
RNA 1: B1 RNA 1
RNA 2: B1 RNA 2 with U30C, C39G, G47U, A51U
B17: target 1 G5C,U19C (mixed)
RNA 1: B1 RNA 1
RNA 2: B1 RNA 2 with U30C, U33C, C39G, G47C
B18: target 1 del16,del19 (mixed)
RNA 1: B1 RNA 1
RNA 2: B2 RNA 2 with U33A, A34G, A37G, G39U, U41A, A42U, U43C, C45G
B19: target 1 insC 3' of 20,insU 3' of 14 (mixed)
RNA 1: B1 RNA 1
RNA 2: B7 RNA 2 with U33C, A34U, G35A, U36G, G40U, A42G
B20: target 1 C7U,G17U (mixed)
RNA 1: B1 RNA 1
RNA 2: B1 RNA 2 with U30C, G35U, C39G, C45U
B21: target 1 insU 3' of 18,insA 3' of 4 (mixed)
RNA 1: B1 RNA 1
RNA 2: B7 RNA 2 with G35U, U36G, A42U, U44A, A45U, U46C, C48G, G49C, C50A
B22: target 1 insC 3' of 17,insA 3' of 3 (mixed)
RNA 1: B1 RNA 1
RNA 2: B7 RNA 2 with U36C, A42U, U44A, A45U, U46C, C48G, G49C, C50U, U51A
B23: target 1 insC 3' of 14,insA 3' of 8 (mixed)
RNA 1: B1 RNA 1
RNA 2: B3 RNA 2 with G39C, U41G, A43U, U44A, A45U, C46A, G48C, U49G
B24: target 1 insA 3' of 15,insG 3' of 14 (mixed)
RNA 1: B1 RNA 1
RNA 2: B7 RNA 2 with U36A, A37G, G38A, A42G
B25: target 1 insG 3' of 19,insC 3' of 3 (mixed)
RNA 1: B1 RNA 1
RNA 2: GGGAAUGGAUCCACAUCUACGAAUUCGUACCAUGAGAGAGGUUAUCCGCUCCACCGAGAUCGGAAGAGCACACGU
B26: target 1 insG 3' of 19,insA 3' of 19 (mixed)
RNA 1: B1 RNA 1
RNA 2: B7 RNA 2 with A34G, G35A, U36A, A37G, G38A, A39G, G40A, A42G
B27: target 1 insU 3' of 14,insA 3' of 7 (mixed)
RNA 1: B1 RNA 1
RNA 2: B3 RNA 2 with G39U, U41G, A43U, U44A, A45U, C47A, G48C, U49G
B28: target 1 insC 3' of 20,insA 3' of 17 (mixed)
RNA 1: B1 RNA 1
RNA 2: B7 RNA 2 with U33C, A34U, G35A, U36G, G38A, A39G, G40A, A42G
B29: target 1 U10C,U19A (mixed)
RNA 1: B1 RNA 1
RNA 2: B1 RNA 2 with U30C, U33A, C39G, U42C
B30: target 1 insU 3' of 20,insA 3' of 5 (mixed)
RNA 1: B1 RNA 1
RNA 2: B25 RNA 2 with G34U, C49A, U50C, C51U
B31: target 1 insC 3' of 19,insC 3' of 13 (mixed)
RNA 1: B1 RNA 1
RNA 2: B7 RNA 2 with A34C, G35A, U36G, G41C, A42G
B32: target 1 insA 3' of 22,insC 3' of 9 (mixed)
RNA 1: B1 RNA 1
RNA 2: B7 RNA 2 with C31A, A32C, U33A, A34U, G35A, U36G, A42U, U44A, A45C
B33: target 1 C2U,U19G (mixed)
RNA 1: B1 RNA 1
RNA 2: B1 RNA 2 with U30C, U33G, C39G, C50U

In this series the target is T1, EsCas13d, nuclease-dead. Briefly: crRNA (strand 1, pre-loaded); Mg2+; 40 mM Tris-HCl pH 7.5, 150 mM NaCl, 6 mM MgCl2, 1 mM DTT, 0.1% Tween-20, 0.2 mg/ml BSA; 25 C; 10 min per concentration, then washed. The conditions noted are these: tags: His6-TwinStrep-SUMO cleaved; N-terminal SNAP kept (SNAP-Surface 488); label: 3' end held by stalled T7 RNA polymerase.
For the molecule B1, the affinity, expressed as Kd, was 62 ± 19 nM.

Molecule B2 yielded a Kd of 27.3 ± 2.6 nM.

As to B3, the Kd turned out to be 22 ± 1.8 nM. This Kd and that of the molecule before are within 1.5-fold of each other.

B4 displayed a Kd of 64 ± 8 nM.

Take B5: the Kd amounted to 23 ± 4 nM. This Kd is about 2.8-fold lower than that of the molecule before.

B6: binding was characterised by a dissociation constant (Kd) of 14.1 ± 0.6 nM.

For B7, the equilibrium dissociation constant (Kd) was 37 ± 6 nM.

As to B8, binding was characterised by a dissociation constant (Kd) of 33 ± 4 nM.

Consider B9, for which the Kd came to 36.8 ± 2.9 nM.

On to B10, for which the Kd was determined as 39 ± 8 nM.

The molecule B11 came in with an equilibrium dissociation constant (Kd) of 11.4 ± 0.5 nM.

Molecule B12 had a Kd of 11.7 ± 0.5 nM.

The molecule B13 came in with a Kd of 9.2 ± 0.5 nM.

For the molecule B14, the Kd worked out at 56.1 ± 2.7 nM.

Consider B15, for which the affinity, expressed as Kd, was 46 ± 6 nM.

Turning to B16, the Kd is 73 ± 11 nM.

Turning to B17, the Kd came to 32 ± 6 nM.

With B18, binding was characterised by a dissociation constant (Kd) of 73 ± 20 nM.

The molecule B19 came in with a Kd of 5.5 ± 0.8 nM.

The molecule B20 came in with a Kd of 19.7 ± 1.8 nM.

Turning to B21, the affinity, expressed as Kd, was 20.9 ± 1.7 nM.

The molecule B22 returned a dissociation constant Kd of 53 ± 8 nM.

As for B23, binding was characterised by a dissociation constant (Kd) of 49 ± 5 nM.

Molecule B24 displayed a Kd of 10.6 ± 1.2 nM.

As for B25, binding was put at a Kd of 62 ± 8 nM. This Kd is about 5.8-fold higher than that of the molecule before.

In the case of B26, the affinity, expressed as Kd, was 50 ± 7 nM.

Molecule B27 showed a Kd of 32.2 ± 3 nM.

For B28, the Kd came out at 8.5 ± 0.8 nM.

On to B29, for which binding was characterised by a dissociation constant (Kd) of 100 ± 40 nM.

Molecule B30 displayed a Kd of 12.2 ± 0.9 nM.

B31 displayed a Kd of 49 ± 15 nM.

B32 displayed a Kd of 14.4 ± 0.6 nM. Against the preceding molecule, the Kd is about 3.4-fold lower.

B33: binding was put at a Kd of 52 ± 4 nM. This Kd lies about 3.6-fold higher than the previous one.

(Values after article PMC10786891, “Massively parallel profiling of RNA-targeting CRISPR-Cas13d”.)
